# Data as given in IntAct's records for PubMed 24034250.
# B1: Apoptosis regulator Bcl-2 homolog (Murid herpesvirus 4 (MuHV-4)), P89884 (parent)
# chain: MSHKKSGTYWATLITAFLKTVSKVEELDCVDSAVLVDVSKIITLTQEFRRHYDSVYRADYGPALKNWKRDLSKLFTSLFVDVINSGRIVGFFDVGRYVCEEVLCPGSWTEDHELLNDCMTHFFIENNLMNHFPLEDIFLAQRKFQTTGFTFLLHALAKVLPRIYSGNVIYV
# Variants of: B1
# Conditions: with becn1_human BECN1, Q14457
# Chain of becn1_human BECN1, Q14457 (Q14457 whole entry): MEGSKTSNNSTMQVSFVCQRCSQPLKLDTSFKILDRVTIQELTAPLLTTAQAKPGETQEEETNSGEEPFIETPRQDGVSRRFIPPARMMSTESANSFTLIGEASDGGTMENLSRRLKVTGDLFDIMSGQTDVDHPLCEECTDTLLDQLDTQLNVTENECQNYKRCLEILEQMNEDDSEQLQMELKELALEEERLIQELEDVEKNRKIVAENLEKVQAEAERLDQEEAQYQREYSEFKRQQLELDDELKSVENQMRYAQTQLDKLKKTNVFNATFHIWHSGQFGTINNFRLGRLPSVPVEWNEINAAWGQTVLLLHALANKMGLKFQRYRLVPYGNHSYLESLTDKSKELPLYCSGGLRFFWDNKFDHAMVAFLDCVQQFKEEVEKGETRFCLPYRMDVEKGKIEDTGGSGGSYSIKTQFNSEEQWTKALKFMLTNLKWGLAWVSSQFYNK
row,Variant,effect of a mutation on the interaction
1,S85A;G86A;R87A,decreasing interaction strength

# Variants of: B1
# Conditions: with bax_human BAX
row,Variant,effect of a mutation on the interaction
1,S85A;G86A;R87A,decreasing interaction strength
